# Molecular target: biotin-labeled soluble FcRn
# Test: FcRn ELISA pH 6.0
Substance,FcRn pH6.0 (% of wild type),FcRn6.0 (% of wild type)
anti-CD20 IgG1 E283I (antibody),143,
anti-CD20 IgG1 343R345D (antibody),,143
anti-CD20 IgG1 Y373K (antibody),70,
anti-CD20 IgG1 283R307E (antibody),,400
anti-CD20 IgG1 S440H (antibody),110,
anti-CD20 IgG1 A339K (antibody),83,
anti-CD20 IgG1 E283P (antibody),136,
anti-CD20 IgG1 307E376V (antibody),,480
anti-CD20 IgG1 D270K (antibody),122,
anti-CD20 IgG1 V279H (antibody),173,
anti-CD20 IgG1 272R376V (antibody),,369
anti-CD20 IgG1 Q311S (antibody),97,
anti-CD20 IgG1 272R283R (antibody),,439
anti-CD20 IgG1 A378N (antibody),180,
anti-CD20 IgG1 E430M (antibody),195,
anti-CD20 IgG1 D265H (antibody),79,
anti-CD20 IgG1 268E332E (antibody),,88
anti-CD20 IgG1 G341L (antibody),54,
anti-CD20 IgG1 251F332E376I (antibody),,68
anti-CD20 IgG1 E380A (antibody),152,
anti-CD20 IgG1 332E440Y (antibody),,94
anti-CD20 IgG1 E269N (antibody),92,

Substance,FcRn pH6.0 (% of wild type),FcRn6.0 (% of wild type)
anti-CD20 IgG1 L314I (antibody),86,
anti-CD20 IgG1 T256L (antibody),78,
anti-CD20 IgG1 S442K (antibody),138,
anti-CD20 IgG1 314Y332E440Y (antibody),,82
anti-CD20 IgG1 E430W (antibody),11,
anti-CD20 IgG1 L314F (antibody),42,
anti-CD20 IgG1 S424V (antibody),57,
anti-CD20 IgG1 R292F (antibody),64,
anti-CD20 IgG1 S440T (antibody),71,
anti-CD20 IgG1 256P332E (antibody),,121
anti-CD20 IgG1 T256M (antibody),35,
anti-CD20 IgG1 P247E (antibody),52,
anti-CD20 IgG1 S254F (antibody),0,
anti-CD20 IgG1 S440V (antibody),98,
anti-CD20 IgG1 D249E (antibody),78,
anti-CD20 IgG1 P343A (antibody),110,
anti-CD20 IgG1 S440D (antibody),72,
anti-CD20 IgG1 R292I (antibody),56,
anti-CD20 IgG1 P343L (antibody),125,
anti-CD20 IgG1 N434H (antibody),855,
anti-CD20 IgG1 E283K (antibody),246,
anti-CD20 IgG1 E318V (antibody),114,

Substance,FcRn pH6.0 (% of wild type),FcRn6.0 (% of wild type)
anti-CD20 IgG1 K248W (antibody),30,
anti-CD20 IgG1 P244L (antibody),124,
anti-CD20 IgG1 D249N (antibody),112,
anti-CD20 IgG1 E430F (antibody),218,
anti-CD20 IgG1 P343R (antibody),198,
anti-CD20 IgG1 V279D (antibody),367,
anti-CD20 IgG1 Y373A (antibody),33,
anti-CD20 IgG1 E272H (antibody),157,
anti-CD20 IgG1 247L332E (antibody),,78
anti-CD20 IgG1 Q311G (antibody),58,
anti-CD20 IgG1 Q311N (antibody),54,
anti-CD20 IgG1 S267K (antibody),102,
anti-CD20 IgG1 258D376V (antibody),,415
anti-CD20 IgG1 A431H (antibody),151,
anti-CD20 IgG1 E430P (antibody),86,
anti-CD20 IgG1 L314W (antibody),5,
anti-CD20 IgG1 Y373S (antibody),74,
anti-CD20 IgG1 Q311T (antibody),131,
anti-CD20 IgG1 E430A (antibody),179,
anti-CD20 IgG1 D270G (antibody),108,

# Other lines, results leading:
FcRn pH6.0 (% of wild type),FcRn6.0 (% of wild type),Substance
82,,anti-CD20 IgG1 A339R (antibody)
229,,anti-CD20 IgG1 T256N (antibody)
181,,anti-CD20 IgG1 V279Q (antibody)
249,,anti-CD20 IgG1 E430R (antibody)
138,,anti-CD20 IgG1 D249P (antibody)
71,,anti-CD20 IgG1 N315R (antibody)
57,,anti-CD20 IgG1 P247L (antibody)
82,,anti-CD20 IgG1 Y373T (antibody)
,522,anti-CD20 IgG1 258D311I (antibody)
101,,anti-CD20 IgG1 S440G (antibody)
98,,anti-CD20 IgG1 I377P (antibody)
146,,anti-CD20 IgG1 A339N (antibody)
163,,anti-CD20 IgG1 A378D (antibody)
55,,anti-CD20 IgG1 Y373Q (antibody)
34,,anti-CD20 IgG1 K248P (antibody)
98,,anti-CD20 IgG1 G385E (antibody)
184,,anti-CD20 IgG1 P257S (antibody)
41,,anti-CD20 IgG1 D249Y (antibody)
102,,anti-CD20 IgG1 A339Q (antibody)
46,,anti-CD20 IgG1 L251H (antibody)
216,,anti-CD20 IgG1 E318N (antibody)

FcRn pH6.0 (% of wild type),FcRn6.0 (% of wild type),Substance
135,,anti-CD20 IgG1 D376G (antibody)
200,,anti-CD20 IgG1 Q438L (antibody)
102,,anti-CD20 IgG1 P238V (antibody)
135,,anti-CD20 IgG1 E382M (antibody)
127,,anti-CD20 IgG1 G341P (antibody)
126,,anti-CD20 IgG1 H268E (antibody)
87,,anti-CD20 IgG1 L235E (antibody)
156,,anti-CD20 IgG1 A339W (antibody)
7,,anti-CD20 IgG1 L251I (antibody)
107,,anti-CD20 IgG1 D265K (antibody)
169,,anti-CD20 IgG1 T256S (antibody)
97,,anti-CD20 IgG1 S424H (antibody)
72,,anti-CD20 IgG1 G341Q (antibody)
139,,anti-CD20 IgG1 Q311A (antibody)
835,,anti-CD20 IgG1 P257M (antibody)
15,,anti-CD20 IgG1 K248A (antibody)
65,,anti-CD20 IgG1 S426D (antibody)
66,,anti-CD20 IgG1 P238G (antibody)
162,,anti-CD20 IgG1 E382Q (antibody)
173,,anti-CD20 IgG1 E382V (antibody)
,522,anti-CD20 IgG1 279D307E (antibody)

FcRn pH6.0 (% of wild type),FcRn6.0 (% of wild type),Substance
88,,anti-CD20 IgG1 N315K (antibody)
69,,anti-CD20 IgG1 G341V (antibody)
108,,anti-CD20 IgG1 A330K (antibody)
110,,anti-CD20 IgG1 E283D (antibody)
82,,anti-CD20 IgG1 D376E (antibody)
160,,anti-CD20 IgG1 T256A (antibody)
3,,anti-CD20 IgG1 S254P (antibody)
302,,anti-CD20 IgG1 T307M (antibody)
339,,anti-CD20 IgG1 T256E (antibody)
222,,anti-CD20 IgG1 E382F (antibody)
,79,anti-CD20 IgG1 256P314Y440Y (antibody)
1340,,anti-CD20 IgG1 N434W (antibody)
60,,anti-CD20 IgG1 S424M (antibody)
85,,anti-CD20 IgG1 L235S (antibody)
7,,anti-CD20 IgG1 S254D (antibody)
88,,anti-CD20 IgG1 S440R (antibody)
,132,anti-CD20 IgG1 332E376V (antibody)
164,,anti-CD20 IgG1 Q438W (antibody)
68,,anti-CD20 IgG1 T256Y (antibody)
345,,anti-CD20 IgG1 P343E (antibody)
21,,anti-CD20 IgG1 L314V (antibody)

# Source: patent publication US20070224188A1
